Measurements from US20250051446A1 (OSE IMMUNOTHERAPEUTICS, published 2025).

Target: T1, human CD28 on peripheral blood CD3+ T lymphocytes (human, UniProt P10747 19-220)
T1 construct: whole, on cells; Target of the receptor occupancy flow cytometry assay on blood T cells of study subjects; also called CD28 receptor
Assay: Kd recalculated in the PK/target engagement model from receptor occupancy observed by flow cytometry in humans (cohort A); not a direct in vitro measurement

B1: FR104, humanized pegylated monovalent anti-CD28 Fab' antibody fragment (Fab, V domains shown)
VH: QVQLQQSGAELKKPGASVKVSCKASGYTFTEYIIHWIKLRSGQGLEWIGWFYPGSNDIQYNAQFKGKATLTADKSSSTVYMELTGLTPEDSAVYFCARRDDFSGYDALPYWGQGTLVTVSA
VL: DIQMTQSPSSLSASVGDRVTITCKTNENIYSNLAWYQQKDGKSPQLLIYAATHLVEGVPSRFSGSGSGTQYSLTISSLQPEDFGNYYCQHFWGTPCTFGGGTKLEIKR
modifications: pegylated at its C-terminus: bi-branched 2x20 kDa PEG linked to the C-terminal cysteine via a maleimide ring
notes: also called FR104-PEG; anti-CD28.3 Fab
Kd: ~0.3 nM
